Measurements taken from patent US20040072285A1 (OREGON HEALTH AND SCIENCE UNIVERSITY, published 2004).

B1: P4.33 protein (IGFBP-3 receptor, IGFBP-3R), untagged / endogenous (receptor)
chain: SFLLTHRTGLRSPDIPQDWVSFLRSFGQLTLCPRNGTVTGKWRGSHVVGLLTTLNFGDGPDRNKTRTFQATVLGSQMGLKGSSAGQLVLITARVTTERTAGTCLYFSAVPGILPSSQPPISCSEEGAGNATLSPRMGEECVSVWSHEGLVLTKLLTSEELALCGSRLLVLGSFLLLFCGLLCCVTAMCFHPRRESHWSRTRL
B2: IGFBP-3 fragment comprising amino acids 88-148 (peptide, UniProt P17936 115-175, looked up)
chain: VNASAVSRLRAYLLPAPPAPGNASESEEDRSAGSVESPSVSSTHRVSDPKFHPLHSKIIII
notes: range 88-148; also called IGFBP-3 fragment 88-148
B3: IGFBP-3 fragment comprising amino acids 98-264 (other, UniProt P17936 125-291, looked up)
chain: AYLLPAPPAPGNASESEEDRSAGSVESPSVSSTHRVSDPKFHPLHSKIIIIKKGHAKDSQRYKVDYESQSTDTQNFSSESKRETEYGPCRREMEDTLNHLKFLNVLSPRGVHIPNCDKKGFYKKKQCRPSKGRKRGFCWCVDKYGQPLPGYTTKGKEDVHCYSMQSK
notes: range 98-264; also called IGFBP-3 fragment 98-264

Key:
[1] = target: T1, Insulin-like Growth Factor Binding Protein-3 (IGFBP-3) (UniProt P17936 28-291, limits assumed, 125I label or OregonGreen label in some assays (sites not given)); test: cell-surface binding with unlabelled IGFBP-3 as competitor, Hs578T cells transfected with un-tagged clone 4.33
T1 construct: mature; Also used for IGFBP-3 expressed by the cells themselves (Hs578T, PC-3, MCF-7:BP-3 lines) in the functional rows; also called unlabelled IGFBP-3
Description: Cell surface binding assay. Cells were seeded into 24-well plates and grown to 60-70% confluency, then transfected according to manufacturer instructions in serum-containing medium for 36 hours. Sf9 cells were seeded into 24-well plates and infected with virus harboring the 4-33^F cDNA for 48 hours. Cells were washed in cold PBS, then incubated for 3 hours at 12° C. in binding buffer (1× Hank's buffered salt solution, 1 mM CaCl₂, 1 mM MgCl₂, 0.5% BSA) containing [¹²⁵I]-IGFBP-3 (Diagnostic Systems Laboratories) at 50,000 cpm per well in triplicate, with or without unlabelled IGFBP-3 as indicated in the text below. The binding solution was then aspirated and the cells washed in cold binding buffer (without BSA), lysed in 0.25 N NaOH, and the radiolabelled IGFBP-3 present in each lysate was detected in a gamma counter.
Cells were then washed and exposed to [¹²⁵I]-labelled IGFBP-3 plus and minus increasing amounts of unlabelled IGFBP-3 as indicated for 3 hours at 12° C.

[2] = target: B1; test: cell-surface competition assay; competitor of full-length IGFBP-3

| binding result [1] | binding result [2] | Binder |
| --- | --- | --- |
| binds | – | B1 |
| – | binds | B2 |
| – | binds | B3 |
